Data published in article PMC10387464 (Signal Transduction and Targeted Therapy, 2023).

Molecular target: Omicron BA.1 spike trimer (SARS-CoV-2 Omicron BA.1 (B.1.1.529), N440K | G446S)
Test: cryo-EM structure
Conditions: both partners purified

B1: MB.02 Fab (Fab, V domains shown)
VH: EVQLVQSGAEVKKPGESLKISCKGSGFSFTSYWIGWVRQMPGKGLEWMGIIYPGDSDTRYSPSFQGQVTISADKSISTAYLQWSSLKASDTAMYYCARGGYEDVFDIWGQGTMVTVSS
VL: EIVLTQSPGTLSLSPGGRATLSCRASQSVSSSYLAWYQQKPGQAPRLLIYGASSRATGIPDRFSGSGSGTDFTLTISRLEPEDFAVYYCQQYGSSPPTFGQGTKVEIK
  stoichiometry N: 3 Fabs per S trimer
